Assay results: the supplement of paper PMC7877785
± gives the uncertainty stated by the source.

Experiment: self-splicing fitness, log relative to wild type (ln ratio); higher = more splicing; Tetrahymena group I intron in knt gene, E. coli kanamycin selection, DiMSum; sequences stand for … in CUCUCU…GGAGGGAAAAGUUAUCAGGCAUGCACCUGGUAGCUAGUCUUUAAACCAAUAGAUUGCAUCGGUUUAAAAGGCAAGACCGUCAAAUUGCGGGAAAGGGGUCAACAGCCGUUCAGUACCAAGUCUCAGGGGAAACUUUGAGAUGGCCUUGCAAAGGGUAUGGUAAUAAGCUGACGGACAUGGUCCUAACCACGCAGCCAAGUCCUAAGUCAACAGAUCUUCUGUUGAUAUGGAUGCAGUUCACAGACUAAAUGUCGGUCGGGGAAGAUGUAUUCUUCUCAUAAGAUAUAGUCGGACCUCUCCUUAAUGGGAGCUAGCGGAUGAAGUGAUGCAACACUGGAGCCGCUGGGAACUAAUUUGUAUGCGAAAGUAUAUUGAUUAGUUUUGGAGUACUCGUGGUCG
Method in brief: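 Colonies from six replicate transformations of E. coli BL21(DE3) were pooled and amplicon-sequenced on an Illumina HiSeq 2500. The library placed an intron with all eight P1ex-region nucleotides randomised inside the knt kanamycin-resistance gene on pET-22b(+), and cells grew overnight at 37°C or 30°C on LB agar with or without 25 μg/mL kanamycin (plus 100 μg/mL carbenicillin, 50 μM IPTG, 0.2% rhamnose). Fitness is the DiMSum error-weighted combination of wild-type-normalised replicate fold changes, kanamycin versus none.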

| Sequence | self-splicing fitness (ln) (30 °C) | self-splicing fitness (ln) (37 °C) |
| --- | --- | --- |
| CUUUAGCAAUAUUACGCUAU | -3.66 ± 0.31 | -1.68 ± 0.23 |
| AGGCAGCAAUAUUACGAAAA | -3.77 ± 0.25 | -2.26 ± 0.15 |
| AUCCAGCAAUAUUACGCGCG | -2 ± 0.074 | -0.8 ± 0.1 |
| UGAAAGCAAUAUUACGAGAG | -4.15 ± 0.33 | -1.61 ± 0.14 |
| CAUUAGCAAUAUUACGAAAU | -3.12 ± 0.29 | -2.37 ± 0.28 |
| GGAGAGCAAUAUUACGAUGG | -4.43 ± 0.46 |  |
| CCUCAGCAAUAUUACGUAGA | -3.97 ± 0.28 | -2.8 ± 0.3 |
| AACGAGCAAUAUUACGCCUC | -2.71 ± 0.28 | -1.53 ± 0.17 |
| CGGCAGCAAUAUUACGGAUU | -3.9 ± 0.31 | -2.24 ± 0.21 |
| ACCAAGCAAUAUUACGUCAG | -3.58 ± 0.15 | -1.56 ± 0.1 |
| CACAAGCAAUAUUACGUUUU | -4.18 ± 0.15 | -3.45 ± 0.22 |
| GUUAAGCAAUAUUACGUUAG | -2.47 ± 0.13 | -1.32 ± 0.14 |
| CACGAGCAAUAUUACGACAC | -2.84 ± 0.23 | -2.18 ± 0.3 |
| GGCGAGCAAUAUUACGGGAG | -3.99 ± 0.34 | -1.33 ± 0.23 |
| GCCAAGCAAUAUUACGACUU | -2.29 ± 0.15 | -1.68 ± 0.16 |
| AUGAAGCAAUAUUACGCCCU | 0.921 ± 0.15 | 0.202 ± 0.17 |
| UAGUAGCAAUAUUACGUACG | -1.24 ± 0.16 | 0.127 ± 0.16 |
| CAGAAGCAAUAUUACGCUAU | -3.4 ± 0.16 | -3.04 ± 0.16 |
| GUACAGCAAUAUUACGUGAG | -1.42 ± 0.074 | -0.954 ± 0.093 |
| GUCUAGCAAUAUUACGCCGC | -3.25 ± 0.38 |  |
| ACAAAGCAAUAUUACGACAC | -1.54 ± 0.084 | -0.962 ± 0.1 |
| GCAAAGCAAUAUUACGAUAA | -1.48 ± 0.086 | -1.14 ± 0.1 |
| UUCCAGCAAUAUUACGAACC | -2.74 ± 0.42 | 0.108 ± 0.43 |
| CGGCAGCAAUAUUACGUUGA | -2.63 ± 0.19 | -1.8 ± 0.16 |
| AUAAAGCAAUAUUACGGUCU | -0.245 ± 0.061 | 0.47 ± 0.088 |
| GUGUAGCAAUAUUACGCGGU | -2.85 ± 0.34 | -0.66 ± 0.41 |

| Sequence | self-splicing fitness (ln) (30 °C) | self-splicing fitness (ln) (37 °C) |
| --- | --- | --- |
| CCCCAGCAAUAUUACGCUCA | -3.21 ± 0.24 | -0.421 ± 0.17 |
| UACCAGCAAUAUUACGACGG | -0.833 ± 0.06 | -0.237 ± 0.094 |
| ACGCAGCAAUAUUACGGAGU | -2.79 ± 0.093 | -2.08 ± 0.12 |
| CUCAAGCAAUAUUACGGUGA | -2.9 ± 0.12 | -1.29 ± 0.12 |
| GGCUAGCAAUAUUACGGACG | 0.655 ± 0.093 | 0.211 ± 0.11 |
| CUAGAGCAAUAUUACGCGAU | -0.892 ± 0.084 | -0.253 ± 0.11 |
| UGCGAGCAAUAUUACGAGGC | -2.74 ± 0.23 | -2 ± 0.23 |
| ACUUAGCAAUAUUACGAUGU | -1.78 ± 0.08 | -1.36 ± 0.11 |
| GUCAAGCAAUAUUACGCCGG |  | -0.94 ± 0.36 |
| AUGGAGCAAUAUUACGUUUC | -3.47 ± 0.21 | -2.68 ± 0.26 |
| CGUAAGCAAUAUUACGGGGC | -3.43 ± 0.26 | -2.35 ± 0.23 |
| CGAGAGCAAUAUUACGUACG | -3.14 ± 0.17 | -2.28 ± 0.29 |
| CAUGAGCAAUAUUACGGUGA | -1.91 ± 0.35 | -2.8 ± 0.44 |
| ACAUAGCAAUAUUACGUCUA | -2.05 ± 0.096 | -1.1 ± 0.083 |
| GUAAAGCAAUAUUACGUGGU | -3.26 ± 0.12 | -1.11 ± 0.095 |
| AUAUAGCAAUAUUACGAGGG | -2.57 ± 0.43 |  |
| UAGUAGCAAUAUUACGCUAA | -2.12 ± 0.28 | -1.3 ± 0.15 |
| ACCUAGCAAUAUUACGCCUU | -1.43 ± 0.098 | 0.204 ± 0.12 |
| UGCAAGCAAUAUUACGUACC | -2.18 ± 0.16 | -1.02 ± 0.23 |
| CACCAGCAAUAUUACGGAUC | -1.96 ± 0.08 | -1.32 ± 0.094 |
| GUCAAGCAAUAUUACGAAUU | -3.06 ± 0.18 | -1.82 ± 0.17 |
| CUUUAGCAAUAUUACGAGGG | -3.57 ± 0.21 | -2.26 ± 0.27 |
| CUGCAGCAAUAUUACGCUAC | -4.2 ± 0.36 | -2.17 ± 0.16 |
| ACACAGCAAUAUUACGCCCC | -1.66 ± 0.14 | -0.901 ± 0.15 |
| CUGAAGCAAUAUUACGCAAU | -3.09 ± 0.24 | -2.67 ± 0.36 |
| AGAGAGCAAUAUUACGCAUU | -3.41 ± 0.18 | -2.35 ± 0.15 |

| Sequence | self-splicing fitness (ln) (30 °C) | self-splicing fitness (ln) (37 °C) |
| --- | --- | --- |
| GUGGAGCAAUAUUACGAACA | -2.19 ± 0.46 | -0.866 ± 0.45 |
| AAUUAGCAAUAUUACGUACG | -1.75 ± 0.11 | -0.862 ± 0.12 |
| UACGAGCAAUAUUACGUUAU | -3.45 ± 0.12 | -2.24 ± 0.099 |
| UAUCAGCAAUAUUACGCAAC | -2.71 ± 0.2 | -1.52 ± 0.17 |
| UAAGAGCAAUAUUACGAGAG | -2.23 ± 0.38 | -1.95 ± 0.36 |
| ACGUAGCAAUAUUACGCUGC | -3.09 ± 0.34 | -1.44 ± 0.38 |
| ACGAAGCAAUAUUACGGCUA | 0.0742 ± 0.099 | 0.022 ± 0.11 |
| AUAAAGCAAUAUUACGGAUC | -1.55 ± 0.13 | -0.273 ± 0.15 |
| UUUUAGCAAUAUUACGACUG | -0.652 ± 0.097 | -0.152 ± 0.13 |
| AUCCAGCAAUAUUACGCCCA | -0.76 ± 0.14 | -0.212 ± 0.15 |
| UGAAAGCAAUAUUACGUCCU | -0.649 ± 0.091 | -0.195 ± 0.081 |
| CAGGAGCAAUAUUACGAGUA |  | -2.34 ± 0.42 |
| UAUAAGCAAUAUUACGGACC | -2.68 ± 0.16 | -2.07 ± 0.22 |
| CCGUAGCAAUAUUACGGAUG | -3.56 ± 0.3 | -2.11 ± 0.23 |
| UGGAAGCAAUAUUACGUUAG | -0.289 ± 0.094 | -1.07 ± 0.14 |
| UGAAAGCAAUAUUACGGACG | -0.186 ± 0.084 | 0.54 ± 0.12 |
| AUUAAGCAAUAUUACGUGAC | -3.17 ± 0.17 | -1.75 ± 0.18 |
| AGGUAGCAAUAUUACGCGUC | -2.763 ± 0.023 | -1.57 ± 0.037 |
| UCCCAGCAAUAUUACGCGGA | -2.72 ± 0.17 | -1.12 ± 0.12 |
| UAAAAGCAAUAUUACGCUCU | -1.02 ± 0.12 | -0.11 ± 0.14 |
| AUAAAGCAAUAUUACGUCCA | -0.469 ± 0.098 | 0.194 ± 0.16 |
| UUUUAGCAAUAUUACGAUAU | -2.66 ± 0.22 | -1.42 ± 0.28 |
| UGUUAGCAAUAUUACGCUGA | -2.26 ± 0.44 |  |
| GAUCAGCAAUAUUACGCAGA | -2.13 ± 0.14 | -0.891 ± 0.16 |
| CAAUAGCAAUAUUACGAUGG | -1.09 ± 0.074 | -0.114 ± 0.096 |
